B1: Cryptochrome-2 (Arabidopsis thaliana (Mouse-ear cress)), Q96524 (parent)
chain: MKMDKKTIVWFRRDLRIEDNPALAAAAHEGSVFPVFIWCPEEEGQFYPGRASRWWMKQSLAHLSQSLKALGSDLTLIKTHNTISAILDCIRVTGATKVVFNHLYDPVSLVRDHTVKEKLVERGISVQSYNGDLLYEPWEIYCEKGKPFTSFNSYWKKCLDMSIESVMLPPPWRLMPITAAAEAIWACSIEELGLENEAEKPSNALLTRAWSPGWSNADKLLNEFIEKQLIDYAKNSKKVVGNSTSLLSPYLHFGEISVRHVFQCARMKQIIWARDKNSEGEESADLFLRGIGLREYSRYICFNFPFTHEQSLLSHLRFFPWDADVDKFKAWRQGRTGYPLVDAGMRELWATGWMHNRIRVIVSSFAVKFLLLPWKWGMKYFWDTLLDADLECDILGWQYISGSIPDGHELDRLDNPALQGAKYDPEGEYIRQWLPELARLPTEWIHHPWDAPLTVLKASGVELGTNYAKPIVDIDTARELLAKAISRTREAQIMIGAAPDEIVADSFEALGANTIKEPGLCPSVSSNDQQVPSAVRYNGSKRVKPEEEEERDMKKSRGFDERELFSTAESSSSSSVFFVSQSCSLASEGKNLEGIQDSSDQITTSLGKNGCK
partner: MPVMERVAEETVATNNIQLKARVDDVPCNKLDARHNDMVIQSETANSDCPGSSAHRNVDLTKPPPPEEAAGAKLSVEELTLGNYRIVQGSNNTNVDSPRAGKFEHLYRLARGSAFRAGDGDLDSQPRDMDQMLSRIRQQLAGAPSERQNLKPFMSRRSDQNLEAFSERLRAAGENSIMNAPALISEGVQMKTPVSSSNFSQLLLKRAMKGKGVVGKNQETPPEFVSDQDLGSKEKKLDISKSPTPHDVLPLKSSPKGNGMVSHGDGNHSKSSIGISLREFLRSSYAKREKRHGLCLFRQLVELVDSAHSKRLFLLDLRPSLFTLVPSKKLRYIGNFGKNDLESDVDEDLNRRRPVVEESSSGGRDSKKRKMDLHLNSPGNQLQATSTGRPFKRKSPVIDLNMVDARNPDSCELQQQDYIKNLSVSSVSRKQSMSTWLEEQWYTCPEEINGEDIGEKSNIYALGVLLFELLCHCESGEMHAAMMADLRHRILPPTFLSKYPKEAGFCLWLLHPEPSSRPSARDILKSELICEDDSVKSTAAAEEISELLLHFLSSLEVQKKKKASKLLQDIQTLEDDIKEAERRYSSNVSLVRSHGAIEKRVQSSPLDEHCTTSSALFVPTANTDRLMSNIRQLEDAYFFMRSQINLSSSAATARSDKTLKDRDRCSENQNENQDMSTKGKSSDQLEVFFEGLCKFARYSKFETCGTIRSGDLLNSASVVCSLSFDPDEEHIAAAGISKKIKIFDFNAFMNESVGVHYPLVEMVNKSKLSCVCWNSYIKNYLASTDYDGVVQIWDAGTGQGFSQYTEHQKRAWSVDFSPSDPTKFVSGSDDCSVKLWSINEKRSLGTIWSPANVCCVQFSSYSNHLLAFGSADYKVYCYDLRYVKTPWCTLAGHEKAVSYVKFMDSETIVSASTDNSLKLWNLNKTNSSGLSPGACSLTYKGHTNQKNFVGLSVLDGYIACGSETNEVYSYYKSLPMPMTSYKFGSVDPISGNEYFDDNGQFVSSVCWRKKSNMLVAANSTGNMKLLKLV
B2: Cryptochrome-2 (Arabidopsis thaliana (Mouse-ear cress)), Q96524 (parent)
chain: B1 chain
partner: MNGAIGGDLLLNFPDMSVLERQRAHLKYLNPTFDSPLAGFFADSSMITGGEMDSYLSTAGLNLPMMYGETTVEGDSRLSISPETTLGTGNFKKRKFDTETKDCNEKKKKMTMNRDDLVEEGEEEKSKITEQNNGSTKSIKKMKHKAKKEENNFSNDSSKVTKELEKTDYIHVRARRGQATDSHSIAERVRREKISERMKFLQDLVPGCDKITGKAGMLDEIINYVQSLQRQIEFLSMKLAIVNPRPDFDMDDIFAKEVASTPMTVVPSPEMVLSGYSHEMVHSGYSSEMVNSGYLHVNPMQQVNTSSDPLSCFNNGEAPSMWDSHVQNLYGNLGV

Variants of: B1
Conditions: with spa1_arath SPA1, Q9SYX2

effect of a mutation on the interaction | Variant
increasing interaction strength | W374A

Variants of: B2
Conditions: with bh063_arath BHLH63, Q8GY61

effect of a mutation on the interaction | Variant
disrupting interaction strength | D387A
increasing interaction strength | W374A

— IntAct's records for PubMed 22139370
